Measured values reported in patent publication US6863885B2, “Method of decreasing radiation or radio-mimetic chemotherapy for hematopoietic pluripotent cell engraftment” (The United States of America as represented by the …, priority 1995, dated 2005).

System: engraftment of donor Sca-1+ HPCs (donor Ly5.2 cells among recipient PBMCs)
Assay: Cytokine pre-conditioning effect on short term engraftment of donor Sca-1+ HPCs after 200 cGy radiation
Type: in vivo, C57BL/6-Ly-5.1-Pep3b mice
Details: mice
Description: FIG. 1 is a bar graph showing the cytokine hematopoietic growth factor pretreatment conditioning effect on engraftment of HPCs following 200 cGy radiation in mice, one month after transplantation. Recipient C57BL/6J-Ly-5.1-Pep^3b mice received b.i.d. sc injections of PBS (□) 0.1% BSA, 4 μg rhGCSF (□) in 0.1% BSA, or 4 μg rhGCSF plus 1.0 μg rmSCF(▪) in 0.1% BSA (R&D Systems, Minneapolis, Minn.) for four days. On the fifth day, mice received a single sc injection followed one hour later by a 200 cGy radiation dose. Four hours after irradiation, all mice received 0.5×10^6 Sca-1+BM cells via tail vein injection. Mice were bled 1 month after BMT and PB was analyzed for engraftment. […] The data represent three experiments in series with 2 mice per condition in each experiment. All animals survived this procedure.
The data which forms the basis of the present invention concerns the enhanced in vivo transfer of purified SCA-1+bone marrow derived HPCs using congenic C57BL/6 mice, which differ only at the Ly5 locus. The origin of a cell is detectable by immunoreactivity with either anti-Ly5.1 or anti-Ly5.2 antibodies by FACS of PBMCs. […] Using this system, the effects of pre-transplantation cytokine conditioning on short term engraftment, defined as the percentage of total PBMCs in the recipient that were donor Ly5.2 cells, measured one month after transplantation, have been determined. […]

B1: rhGCSF: recombinant human granulocyte colony stimulating factor (R&D Systems), 4 μg in 0.1% BSA (protein, UniProt P09919 31-207, looked up)
Granulocyte …: TPLGPASSLPQSFLLKCLEQVRKIQGDGAALQEKLVSECATYKLCHPEELVLLGHSLGIPWAPLSSCPSQALQLAGCLSQLHSGLFLYQGLLQALEGISPELGPTLDTLQLDVADFATTIWQQMEELGMAPALQPTQGAMPAFASAFQRRAGGVLVASHLQSFLEVSYRVLRHLAQP
- engraftment (percentage of total PBMCs in the recipient that were donor Ly5.2 cells) (b.i.d. sc for four days plus final injection on day 5, 0.5×10^6 Sca-1+ cells iv, measured one month after transplantation): 18.9%
- fold increase in engraftment compared with control (one month after transplantation, versus vehicle control (0.1% BSA), p<0.01): at least a three fold increase
